These results are taken from patent publication US20070020258A1.

Assay [1] has as its target FcεRII (CD23) on IM9 B cells (human) (UniProt P06734). As to the kind of experiment: FACS, IM9 cells, 5 ug/ml. (In general: Flow cytometry measures light scatter and fluorescence of single cells or particles in a stream.)
Assay [2] has as its target FcεRI alpha chain on CHO 3D10 cells (UniProt P12319). As to the kind of experiment: FACS, CHO 3D10 cells, 5 ug/ml.
Assay [3] has the same target. As to the kind of experiment: FACS, CHO 3D10 cells, 10 ug/ml.
Assay [4] has as its target FcεRII (CD23) on IM9 B cells (human) (UniProt P06734). Put plainly: FACS, IM9 cells, 10 ug/ml.
The target of assay [5] is FcεRI alpha chain on CHO 3D10 cells (UniProt P12319). As to the kind of experiment: FACS, CHO 3D10 cells, 0.1 ug/ml.
Chain of FcεRI alpha chain on CHO 3D10 cells (P12319 26-257 limits assumed): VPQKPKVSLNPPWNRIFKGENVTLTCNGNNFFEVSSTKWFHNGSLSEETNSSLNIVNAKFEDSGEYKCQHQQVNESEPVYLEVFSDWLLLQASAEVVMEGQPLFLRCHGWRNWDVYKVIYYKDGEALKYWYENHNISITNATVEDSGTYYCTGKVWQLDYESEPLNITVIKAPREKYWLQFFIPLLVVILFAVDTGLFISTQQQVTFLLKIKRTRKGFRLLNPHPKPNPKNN
Assay [6] shares this target. Put plainly: FACS, CHO 3D10 cells, 0.5 ug/ml.
The target of assay [7] is FcεRII (CD23) on IM9 B cells (human) (UniProt P06734). Put plainly: FACS, IM9 cells, 0.1 ug/ml.
Chain of FcεRII (CD23) on IM9 B cells (human) (P06734 whole entry): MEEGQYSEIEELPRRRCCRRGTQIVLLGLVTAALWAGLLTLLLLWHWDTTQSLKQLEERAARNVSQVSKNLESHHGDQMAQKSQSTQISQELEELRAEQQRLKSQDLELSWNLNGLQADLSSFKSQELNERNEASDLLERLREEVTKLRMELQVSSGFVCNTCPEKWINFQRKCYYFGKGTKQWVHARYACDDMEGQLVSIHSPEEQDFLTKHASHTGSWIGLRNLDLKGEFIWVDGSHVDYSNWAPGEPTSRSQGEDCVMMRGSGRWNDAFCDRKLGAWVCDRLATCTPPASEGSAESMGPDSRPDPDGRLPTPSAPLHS

For the substance “human IgE purified from U266B1 cells (from UniProt P01854 1-428) (antibody)”, the figures for the % IM9 (+) in assay [1], in assay [4] and in assay [7] were 82.6%, 92.5% and 1.7%, respectively. For the same substance, the % CHO 3D10(+) in assay [2] amounted to 89.9%; in assay [3] it was 90.3%; in assay [5], 15.8%; in assay [6], 59.6%.
